# The RNAGym collection of RNA variant scans (doi:10.1073/pnas.2313332121)
# B1: TPR t1 (parent)
# chain: GACCAAUCUGCCCUCAGAGCUCGAGAACAUCUUCGGAUGCAGAGGAGGCAGGCUUCGGUGGCGCGAUAGCGCCAACGUCCUCAACCUCCAAUGCAUCCCACCACAUGAUGAUGCCUGAAGAGCCUUGGUUUUUUG
# Variants of: B1
# Assay: polymerase ribozyme fitness, log enrichment relative to wild type (log ratio); higher = more active; in vitro selection for triplet polymerase activity
# Procedure, shortened: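 In triplicate, a single round of in vitro selection was run on each mutant library, PCR-built and transcribed, covering one subunit of a heterodimeric triplet polymerase ribozyme. Frozen incubation at −7 °C followed annealing with a biotinylated primer, partner subunit and triplets, and extended constructs were then gel-excised, streptavidin-captured and taken through RT-PCR. Fitness is the logarithm of genotype enrichment over wild-type enrichment, from inverse-variance-weighted replicate averages of Illumina-sequenced inputs and outputs. […] only genotypes with ≥10 input reads and ≥1 read per output were kept.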
row,Variant,polymerase ribozyme fitness (log ratio)
1,GACCAAUCUGCCCUCAGAGCUCGAGAACAUCUUCGGAUGCAGAGGAGGCAGGCUUUGGUGGCGCGAUAGCGCCAACGUCCUCAACCACCAAUGCAUCCCACCACAUGAUGAUGCCUGAAGAGGCUUGGUUUUUUG,1.81
2,GACCAAUCUGCCCUCAGAGCUCGAGAACAUCUUCGGAUGCAGAGGAGGCAGGCUUCGGUGGCGCGAUAGCGCCAACGUCCUCAGCCUCCAAUGCAUCCCACCACAUGAUGAUGCCUGAAAAGCCUUGGUGUUUUG,-0.15
3,GACCAAUCUGCCCUCAGAGCUCGAGAACAUCUUCGGAUGCAGAGGAGGCAGGGGUCGGUGGCCCGAUAGCGCCAACGUCCUCAACCUCCAAUGCAUCCCACCACAUGAUGAUGCCUGAAGAGCCUUGGUUUUUUG,-3.77
4,GACCAAUCUGCCCUCAGAGCUCGAGAACAUCUUCGGAUGCAGAGGAGGCAGGCUUCGGUGGCGCGAUACCGCCAACGUCCUCAACCUCCAAUUCAUCCCACCACAUGAUGAUGCCUGAAGAGCCUUGGUUUUUUG,-2.49
5,GUCCAAUAUGCCCUCAGAGCUCGAGAACAUCUUCGGAUGCAGAGGAGGCAGGCUUCGGUGGCGCGAUAGCGCCUACGUCCUCAACCUCCAAUGCUUCCCACCACAUGAUAAUGCCUGAAGAGCCUUUGUCUUUUG,-3.91
6,GACCAAUCUGCCCUCAGAGCUCGAGAACAUCUUCGGAUGCAGAGUAGGCAAGCUUCGGUGGCGCGAUAGCGCCAACGUCCUCAACCUCCAAUGCAUCCCACCACAUGAUGAUGCCUGAAGAGCCUUGGUUUUUUG,-3.89
7,GACCAAUCUGCCCUCAGAGCUCGAGAACAUCUUCGGAUGCAGAGGAGGCAGGCUUCGGUGGCGCGAUAGCGCCAACUUCCUCAACCUCCAAUGCAUCCCACCACAUGAUGAUGCCUGAAGAGCCUUGGUUGUUUG,-1.01
8,GACCAAUCUGCCCUCAGAGCUCGAGACCAUCUUCGGAUGCAGAGGAGGCAGGCUUCGGUGGCGCGAUAGCGCCAACGUCCUCAACCUCCAAUGCAUCCCACCACAUGAUGAUGCCUGUAGAGCCUUGGUUUUUUG,-2.67
9,GACCAAUCUGCCCUCAGAGCUCGAGAACAUCUUCGGAUGCAGAGGAGGCAGACUUCGGUGGCGCGAUAGCGCCGACGUGCUCAACCUCCAAUGCAGCCCACCACAUGAUGAUGCCUGAAGAGCCUUGGUUUUUUG,-0.912
10,GACCAAUCUGCCCUCAGAGCUCGAGAACAUCUUCGGAUGCAGAGGAGGCAGGCUUCGGUGGCGCGAUAGCGCCAACGUCCUCAACCUCCAAUGCAUCCCACUACAUGAUGAUGACUGAAGAGCCUUGGUUUUUUG,-3.75
11,GACCAAUCAGCCCUCAGAGCUCGAGAACAUCUUCGGAUACAGAGGAGGCAGGCUUCGGUGGCGCGAUAGCGCCAACGUCCUCAACCUCCAAUGCAUCCCACCACAUGAUGAUGCCUGAAGAGCCUUGGUUUUUUG,0.185
12,GACCAAUCUGCCCUCAGAGCUCGAGAACAUCUUCGGAUGCAGAGGAAGCAGGCUGCGGUGGCGCGAUAGCGCCAACGUCCUCAAUCUCCAAUGCAUCCCACCACAUGAUGAUGCCUGAAGAGCCUUGGUUUUUUG,-1.22
13,GACCGAUCUGCCCUCAGAGCUCGAGAACAUCUUCGGAUGCAUAGGAGGCAGGCUUGGGUGGCGCGAUAGCGCCAACGUCCUCAACCUCCACUGCAUCCCACCACAUGAUGAUGCGUGAAGAGCCUUGGUUUUUUG,-3.59
14,GACCAAUCUGCCCUCAGAGCUCGAGAACAUCUUCGGAUGCAGAGGAGGUAGGCUUCGCUGGCGCGAUAGCGCCAACGUCCUCAACCUCCAAUGCAUCCCACCACAUGAUGCUGCCUGAAGAGCCUUGGUUUUUUG,-0.939
15,GACCAAUCUGCCCUCAGAGCUCGAGAACAUCUUCGGAUGCAGAGGAGGCAGGCUUCGGUAGCGCGAUAGCGCCAACGUCCUCAACCUCUAAUGCUUCCCACCACAUGAUGAUGCCUGAAGAGCCUUGGUUUUUUG,-1.24
16,GACCAAUCUGUCCUCAGAGCUCGAGAACAUCUUCGGAUGCAGAGCAGGCAGGCUUCAGUGUCGCGAUAGCGCCAACGUCCUCAACCUCCAAUGCAUCCCACCACAUGAUGAUGCCUGAAGAGCCUUGGUUUCUUG,-3.81
17,GACCAAUCUGGCCUCAGAGCUCGAGAACAUCUUCGGAUGCAGAGGAGGCAGGCUUCGGUGGCGCGAUAGCGCCAACGUCCUCAACCUCCAAUGCAUCCCACCACAUGAUGAUGUCUGAAGAGCCUUGGUUUUUUG,-0.754
18,GACCAAUCUGCCCUCAGAGCUCGAGAACAUCUUCGGAUGCAGAGGAGGCAGGCUUCGGUGGCGCGAUAGCGCCAACGUCCUCAACCUCCAAUGCAUCCCACCACAUGAUGAUGCCUGAAGAGCCAUGGUUCUUUG,-0.281
19,GACCAAUCUGCCCUCAGAGCUCGAGAACAUCUUCGGAUGCAGAGGACGCAGGCUUCGGUGGCGCGAUAGCGCCAACGUCCUCAACCUCCAAUGCAUCCCACCACAUGAUGAUACCUGAAGAGCCUUGGUUUUUUG,-2.47
20,GACCAAUCUGCCCUCAAAGCUCGAAAACAUCUUCGGAUGCAGAGGAGGCACGGUUCGGUGGCGCGAUAGCGCCAACGUCCUCAACCUCCAAUGCAUCCCACCACAUGAUGCUGCCUGAAGAGCCUUGGUUUUUUG,-6.66
21,GACCAAUCUGCCCUCAGAGCUCGAGAACAUCUUCGGUUGCAGAGGAGGCAGGCUUCGGUGGCGCGAUAUCGCCAACGUCCUCAACCUCCAAUGCAUCCCACCACAUGAUGAUGCCUGCAGAGCCUUGGUUUUUUG,-2.82

row,Variant,polymerase ribozyme fitness (log ratio)
1,GACCAAUCUGCCCUCAGAGCUCGAGAACAUCUUGGGAUGCAGAGGAGGCAGGCUUCGGUGGCGCGAUAGCGCCAACGUCCUCAACCUCCAAUGCAUCCCACCACAUGAUGAUGCCUGAAGAGUCUUGGUUUUUUG,-5.16
2,GACCAAUCUGCCCUCAGAGCUCGAGAACAUCUUCGGAUGCAGAGGAGGCAGGCUUCGGUGGCGUGAUAGCGCCAACGUCCUCAACCUCCAAUGCAUCCCACCACAUUAUGAUGCCUGAAGAGCCUUGGUUUUUUG,-5.43
3,GACCUAUCAGCCCUCAGUGCUCGAGAACAUCUUCGGAUGCAGAGGAGGCAGGCUUCGGUGGCGCGAUAGCGCCAACGUCCUCAACCUCCAAUGCAUCCCACCACAUGAUGAUGCCUGAAGAGCCUUGGUUUUUUG,-2.06
4,GACCAAUCUGCCCUCAGAGCUCGAGAACAUCUUCGGAUGCAGAGGAGGCAGGCUUCGGUGGCGCGAUAGCGCCAACGCCCUCAACCUCCAAUGCAUCCCACCACAUGAUGAUGGCUGAAGAGCCUUGGUUUUUUG,-2.46
5,GACCAAUCUGCCCUCAGAGCUCGAGAACAUCUUCGGAUGCAGAUGAGGCAGGCUUCGGUGGCACGAUAGCGCCAACGUCCUCAACCUCCAAUGCAUCCCACCACAUGAUGAUGCCUGAAGAGCCUUGGUUUUUUG,-1.62
6,GACCAAUCUGCCCUCAGAGCUCGAGAACAUCUUCGGAUGCAUAGGAGGCAGGCUUCGGUGGCGCGAUAGCGCCAACGUCCUCAACCUCUAAUGCAUCCCACCACAUGAUGAUGCCUGAAGAGCCUUGGUUUUUUG,-0.954
7,GACCAAUCUGCCCUCAGAGCUCGAGAACAUCUUCGGAUGCAGAGGAGGCAGGCUUCGGUUGCGCGAUAGCGCUAACGUCCUCAACCUCCAAUGCAUCCCACCACAAGAUGAUGCCUGAAGAGCCUUGGUUUUUUG,-0.452
8,GACCAAUCUGCCCUCAGAGCCCGAGAACAUCUUCGGAUGCAGAGGAGGCAGGCUUCGGUGGUGCGAUAGCGCCAACGUCCUCUACCGCCAAUGCAUCCCACCACAUGAUGAUGCCUGAAGAGCCUUGGUUUUUUG,0.103
9,GACCAAUCUGCCCUCAGAGCUCGAGAACAUCUGCGGAUGCAGAGGAGGGAGGGUUCGGUGUCGCGAUAGCGCCAACGUCCUCAACCUCCAAUGCAUCCCACCACAUGAUGAUGCCUGAAGAGCCUUGGUUUUUUG,-7.57
10,GACCAAUCUGCCCUCAGAGCUCGAGAACAUCUUCGGAUGCAGAGGAGGCAGGCUUCGGUGGCGCGAUAGCGCCAAUGUCCUCAACCUCCACUGCAUCCCACCACAUGAUGAUGCCUGAAGAGCCUUGGUUUUUUG,-2.38
11,GACCAAUCUGCCCUCAGAGCUCGAGAACAUCUUCGGAUGCAGAGGAGGCAGGAUUCGGUGGCGCGAUAGCGACAACGUCCUCAACCUCCAAUGCAUCCCACCACAUGAUGAUGCCUGAAGAGCCUUGGUUUUUUG,-1.56
12,GACUAAGCUGCCCUCAGAGCUCGAGAUCAUCUUCGGAUGCAGAGGAGGCAGGCUUCGGUGGCGCGAUAGCGCCAACGUCCUCAACCUCCAAUGCAUCCCACCACAUGAUGAUGCCUGAGGAGCCUUGGUUUUUUG,-1.81
13,GACCAAUCUGCCAUCAGAGCUCGAGAUCAUCUUCGGAUGCAGAGGAGGCAGGCUUCGGUGGCGCGAUAGCGCCAACGUCCUCAACCUCCAAUGCAUCCCAUCACAUGAUGAUGCCUGAAGAGCCUUGGUUUUUUG,-4.94
14,GACCAAUCUGCCCUCAGAGCUCGAGAACAUCUUCGGAUGCAGAGGAGGCAGGCUUCGGUGCCGCGAUAGCGCCAACGUCCUCAACCUCCAAUGCAUCCCAACACAUGAUGAUGCCUGAAGAGCCUUGGUUUUUUG,-2.74
15,GACCAAUCUGCCCUCAGAGCUCGAGAACAUCUUCGGAUGCAGUGGAGGCAGGCUUCGGUUGCGCGAUAGCGCCAACGUCCUCAACCUCCAAUGCAUCCCACCACAUGAUGAUGCCUGAAGAGGCUUGGUUUGUUG,0.532
16,GAACCAUCUGCCGUCAGAGCUCGAGAACAUCUUCGAAUGCAGAGGAGGCAGGCUUCGGUGGCGCGAUAGCGCCAACGUUCUCAUCCUCCAAUGCAUCCCACCACAUGAUGAUGCCUGAAGAGCCUUGGUUUUUUG,-1.28
17,GACCAAUCUGCCCUCAGAGCUCGAGAACAUCUUCGGAUGCAGAGGAGGCAGGCUUCGGUGGCGCGAUAGCUCCAACGUCCUCAACCUCCAAUCCAUCCCACCACAUGAUGAUGCCUCAAGAGCCUUGGUUUUUUG,-4.78
18,GACCAAUGUGCCCUCAGAGCUCGAGAACAUCUUCGGAUGCAGAGGAGGCAGGCUUCGGUGGCGCGAUAGCGCCAACGUCCUCAACCACCAAUGCAUCCCAACACCUGAUGAUGCCUGAAGAGCCUUGGUUUUUUG,-3.4
19,GAUCAAUCUGCCCUCAGAGCUCGAGAACAUCUUCGGAUGCAGAGGAGGCAGGCUUCGGUGGCGCGAUAGUGCCAACGGCCUCAACCACCAAUGCAUCCCACCACAUGAUGAUGCCUGAAGAGCCUUGGUUUUUUG,-1.1
20,GACCAAUCUGCCCUCAGAGCUCGAGAACUUCUUCGGAUGCAUAGGAGGCAGACUUCGGUGGCGCGAUAGCGCCAACGUCCUCAACCUCCAAUGCAUCCCACCACAUGAGGAUGCCUGAAGAGCCUUGGUUUUUUG,-2.63
21,GACCAAUCUGCCCUCAGUGCUCGAGAAUAUCUUCGUAUGCAGAGGAGGCAGGCUUCGGUGGCGCGAUAGUGCCAACGUGCUCAACCUCCAAUGCAUCCCACCACAUGAUGAUGCCUGAAAAGCAUUGGUUUUUUG,-6.76
